Reference: article PMC10899400, “2′-19F labelling of ribose in RNAs: a tool to analyse RNA/protein interactions by NMR in physiological conditions”

Biological target: Sam68 QUA1-KH (UniProt Q07666 96-260)
Test: EMSA; 40 uM RNA, 10-200 uM protein; NMR buffer 20 mM NaHPO4 pH 6.5, 100 mM NaCl, 1 mM beta-mercaptoethanol, 50 mM L-Arg, 50 mM L-Glu; 19F NMR of free RNA at 303 K, with or without 40% HeLa nuclear extract; EMSA 14% PAGE in TBE pH 7.6, 4 C
Settings: protein: recombinant; tags: N-terminal His6-TEV (pLEICS-01), TEV-treated; chain copies: 2; single-stranded

Sam68 QUA1-KH, sequence (Q07666 96-260): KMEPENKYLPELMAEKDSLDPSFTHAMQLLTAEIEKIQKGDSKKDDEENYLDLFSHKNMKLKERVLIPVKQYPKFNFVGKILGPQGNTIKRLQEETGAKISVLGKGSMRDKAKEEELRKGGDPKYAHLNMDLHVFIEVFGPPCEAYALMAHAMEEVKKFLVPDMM

B1: unmodified RNA (SMN2 21-mer) (ssRNA)
RNA: UUACAGGGUUUUAGACAAAAU
B1: binds.
